The source of these data is the DeepSol protein solubility set.

The data set is described as follows: soluble on expression in E. coli; label from the status in PepcDB or PDB records.
Regarding “MEKNGLFSQRIRLRHLHTFVAVAQQGTLGRAAETLNLSQPALSKTLNELEQLTGTRLFERGRLGAQLTVPGEQFLTHAVKVLDALNTAGQALNRKEDASADVVRVGALPTAALGILPAAIGRFHQQQKSTSLQVATMNNTMLLAGLKSGEIDLGIGRMSDPELMGGLNYELLFLESLKLVVRPGHPLLQETITLSRVMEWPVVVSPKGTVPRQNAEALLQSQGCKMPAGCIETLSASLSRQLTVDYDYVWFVPSGAVKEDLRQATLVSLPVPTQSAGEPIGILTRVDIPLSTGAQMLIAAIRKSMPL”, the “soluble on expression in E. coli” value is reported as “not soluble”.
“VHNAGRMVVMKSRPLGEAEAVLDPSSATVDDFSISRGGDTIAYVKMGPTSPPDIYIYRDDNEYRLTDHNAWFAESRSLAEPVRLQVQSPLGGSIDAWILLPPDAGECSGCLPWILYIHGGPKTSYGYAFIHEFQMLASQGFAVIYSNPRGSDGYSEEFADLRGRYGVDDYSELMKVVDEALSDFPQLDPQRGGVTGGSYGGYMTNVIVTKTRRFKAAVTQRSCSNWISFYGESDIGWYFAPELISAQEPWRDLEKYVDFSPLFSVENIETPLLIIHSTEDFRCPLSGAIQLFTALKLKGVETRLLVFPGENHNLSRSGTPKRRVARLRAIASWFKEHLG”: the “soluble on expression in E. coli” value was “not soluble”.
The result for “MLNYELELWEKGLLVAGVDEAGRGPLAGPVVAAAVILPPFTEPFIKGDSKKLTKKEREEAYEEIKNKALAVGTAVVDSAVIDRVNILRATKLAMKRALKDLKYHYDIVITDYVKLEGENCMPLVKGDEKSLNCACASIIAKVIRDKIMEIYHKIYPDFNFASNKGYPSKTHLEKVEKGEYTEIHRKSFSPLKKKLF” reads “soluble”; that for “MPVMDRAAMRTMATLQPSCMRWLCTTPSILDAAKAGWPISWAATPDSPATVTIRQFQASTCCRKKTFDVVVNTDVLEHVPEAELDCVLRDFRKLSTNAIIIPHLAKATRILPNGENAHCTIKTPSEWAQVFKRHYAHVYELPHHSAVHALFLCGDQERDVTALRGILEQYVAAKNEVRHHLLPLGKRIEKAIRLIRGKDINRLEHHHHHH”, “soluble”; that for “MTIGFLGTGKISASMVDGLMRSVFDVPSIILSPRNAKRAEHLSRNYDKVIIAENNQALLDVCDCVFLCLPNQIAEEVLRSLRFRPEQLVVSVLAMAKAAEVEEWINHKVYRAVPLPFVAECKNLTPIYPDHPFLRSLFDALGGTLVLDAEEQFNLFMTAGSLMGVYFNFIETAHKWFITQGLKKQQSADFLAMMFGNLTDEMRKIMDQDCSTSLDFALLEKEFSTKGGTNELLSHCFSHQGGRSALTTALETTLQKINAPFTY”, “not soluble”.
In the case of “MSKVALFSHVSPDGDCIGSMLGIGLALEALGKEVAMFNPDPIPRNLSFLPGVDKITQSMPDPLPETLLFVDCADLQRVQLQREDLPADAVILNLDHHISNQNFGRINWVDSQAAASGELAYALVRRLNVELTQEIAANFYTALLTDTGSFKYANTTAKTHQIAGELMELEHHHHHH” it was “not soluble”; in that of “RADTLIYMTVNPKTNTTDMVSIPRDTYTKIIGKGTMDKINHSYAFGGTQMTVDTVENFLDVPVDYFVKVNMESFRDVVDTLGGITVNSTFAFSYDGYSFGKGEITLNGKEALAYTRMRKEDPRGDFGRQDRQRQVIQGIINKGAN”, “not soluble”; in that of “MPLLDSFTVDHTRMNAPAVRVAKTMQTPKGDTITVFDLRFTMPNKDILSERGIHTLEHLYAGFMRNHLNGSQVEIIDISPMGCRTGFYMSLIGAPTEQQVAQAWLAAMQDVLKVESQEQIPELNEYQCGTAAMHSLEEAKAIAKNVIAAGISVNRNDELALPESMLNELKVH”, “not soluble”.
The result for “MLKMIAFDFDGTLAPTIPMVIDVFRRSVAPYVEHELTKQAIVQTFGLNEVGMVKAVAGQRWPVALAAFYQEYARAHLRVSAPYPGIVTLLELLQQQGVALALITGKAAKSCQISLDVTGLTSYFPTRLYGSECQPNKADNLRQLMRTKSLDAAELFYVGDTRSDFEAADTAGVQCLTAAWDPNQPIVEAGDQIVFTSVEQLWAYLQRRLGHGLVRPMSHKPR” reads “not soluble”; that for “KGESYKGKVAVASVVLNRTEKKGFPDTIRGVIYQKNAFEPVANGSINQKPDKESIEAAEEALSSKNRETDAIFFYNPKTASDNWIRSRKIVEKIGRHVFAV”, “not soluble”.
On to “MGSDKIHHHHHHMYKLNLDIQAFLANDWQQAPKVFKGAFPDFEDPIAADELAGLACEEEVSSRVVVTKGNDWEVISGPFEDYDRFGETHWQLLVQAVNHWYPESQPLVEAFRFLPDWRFDDLMVSFATPQGGVGPHIDNYDVFIIQGEGQRRWTVGPKGNYQRRGGVTTSPLIEDFEPIIDVVLEKGDVLYIPPGFPHQGETLTLALSYSMGYRAPSQQELAGQIADQLMDEDKGHKRFIAVDGAASHGTVSLAEQQGIMQLIRDLCNDTDNVVKVLGKLLSQNRFDLDIQEDESIDADALVEALNEGAVLMRIGGLKVLKMEGDSQARLFVAGESVIIEGASEEELIEVSNSVNVNAELAQLPHWQGFFVQMLQKGYFYLGED”, for which the “soluble on expression in E. coli” value is “not soluble”.
The result for “GKDFKYNIGFNLSDVKNKVIDLRGYKSSTTELTAKIEGQPLNAIFGFETLGICDNQELYDKYAPMMQKYNPKWGMGDIIIKDRTGEGVINDEDRTVIGNSIPRFTFGLNLGFEYKGFDFSCFFQGVGKADGYVTMEAIQPMGINGARKEHYKESFNPQDPKPGAYFPRILSSDYNYAYMSHWVQDASYIRLKNLQIGYSFKIKGLNQLRVYASGENLFTATKYRTWDPETPVGARGFYPNVAVYSMGVNLNF” reads “not soluble”.
In the case of “MGSDKIHHHHHHMELSSPSKKTTTSPINIPGGNRDNLIIGPHSHSFKTDPFSSNNSSLLSKISTNPSLESPFSSKSLLDCSPVQAVKKSLESEAKTHSLDEETNEQTDVKILNIADFPTDELILMISALLNRIITANDETTDVSQQVSDETEDELLTPILAFYGKNVPEIAVVQYLERIQKYCPTTNDIFLSLLVYFDRISKNYGHSSERNGCAKQLFVMDSGNIHRLLITGVTICTKFLSDFFYSNSRYAKVGGISLQELNHLELQFLILCDFKLLVSVEEMQKYANLLYKFWNDQ” it was “not soluble”.
The result for “MTIKVGINGFGRIGRIVFRAAQKRSDIEIVAINDLLDADYMAYMLKYDSTHGRFDGTVEVKDGHLIVNGKKIRVTAERDPANLKWDEVGVDVVAEATGLFLTDETARKHITAGAKKVVMTGPSKDNTPMFVKGANFDKYAGQDIVSNASCTTNCLAPLAKVINDNFGIIEGLMTTVHATTATQKTVDGPSHKDWRGGRGASQNIIPSSTGAAKAVGKVLPELNGKLTGMAFRVPTPNVSVVDLTVRLEKAATYEQIKAAVKAAAEGEMKGVLGYTEDDVVSTDFNGEVCTSVFDAKAGIALNDNFVKLVSWYDNETGYSNKVLDLIAHISK” reads “soluble”; that for “MLPDVQLLKPEVPIGLSRVGATGIKKLVEVQREGKRPIILISTFDVFVDLPAHLKGVNLSRNFEVIDEVLETLTAKPIENIEDLVVEIADHLLKRHEYATKAEARMNSELIMRKRTPKTGQRTQEVVKIFGEATLGRDGSKVIMVGVEVTGITACPCAQELVKASSAERLAKMGFDEETIQKILDAIPVATHNQRGRATLKVQVTDSFKVPIAKLIDVAKSSMSYETYEILKREDELAVVEAAHRNTRFVEDGVRYMAMELLKTFPNAPDDILVFLRQENEESIHQHNVVAERFATFGELRNEIGSPDASGSSAD”, “soluble”; that for “MFSVRRYRHKRNSLNIDTREITLEPADNARLLSLCGPFDDNIKQLERRLGIEINRRDNHFKLTGRPICVTAATDILRSLYVDTAPMRGQTQDIEPEQIHLAIKEARVLEQSAESVPDYGKAINIKTKRGVIKPRTPNQAQYIANILDHDITFGVGPAGTGKTYLAVAAAVDALERQEIRRILLTRPAVEAGEKLGFLPGDLSQKVDPYLRPLYDALFEMLGFEKVEKLIERNVIEVAPLAYMRGRTLNDAFIILDESQNTTIEQMKMFLTRIGFNSKAVITGDVTQIDLPRNTKSGLRHAIEVLAEVDEISFNFFHSEDVVRHPVVARIVNAYEAWEEAEQKRKAALAAERKREAQEQEQK”, “not soluble”.
For the sequence “MISLVLGLLTSKLHYEQTYYTEIAKRARLYHNVVAQFTPFCIDSKTDLVSGLIYDTDTGKWKEQTFPIPSYIYDRYSFHEETDFEKAKSIIHSLHNRPSTTFLNNTLINLSELHDLFLTNKKLSPYIPKFEVATIQNIFKLLLKSKDIIIRPTNIHSKDNLYRVAYKNKTFHIDTVNEKYHTSLSIKRTDEFISWCKSNIRSSRYIVHTMLQPPNQLTYPLHIRTILQKNKEQTWNVIGQFIQKSSFPNQLLPSATDDDSLHSFSKIKYVLSSTGVQLLQDALHDIINEVFQTLDQSYSSLFELELSTIMDQKGAIWLMYVNTIPPYEQYIRHSDSLAEKIFHGPLKFSRFTP”, the “soluble on expression in E. coli” value is listed as “not soluble”.
On to “GMSADIVFDRGSPSDIDEIKTFTSNTWKVGYYTDLYSKLADTGTMDDYVDKVIERWVNDGSVYVLRVSGRPVATIHMEKLPDGSVMLGGLRVHPEYRGSRLGMSIMQETIQFLRGKTERLRSAVYSWNEPSLRLVHRLGFHQVEEYPIYTFQGGSTAVPALKPVNERYAGRWRCFFIDWKYMCSDDPDIIHEEYSNNLIVDGSTFVYFDIYEGGIDLFVNDSDDASSFIEKYRSMNGRITFYVRKALANGLPYVPASSLTVWEYRY”, for which the “soluble on expression in E. coli” value is on record as “soluble”.
Regarding “MAHHHHHHMKQRTNVALKRWYASERTKKANPLILISNSHNIHFNLSLENFLLNNYSDLLKHLNGNSIERYDDPVLFLWRNNRSIIIGKNQNIWSECNLENIKEDNVLVARRFTGGGAVYHDLQNLCFTFLNNSLSTDDNFSIILKTLKRHFAIEAKRQGRNDITVNDRKCSGSAFKKMKNGFLHHGTIMVNLEKDVLSRYLTPDKIKYTKHGVSSVNARTINLKEINPKITCQDLCYALIKEFQAFYKNGVPNEGGEASCSATLKVEDYTGGEKIANPPEQVSSNRNANLSEGEKSVANLIDHSSPILKHFNIHYVDTNESITKNPEFLKYLNLLKDWDWCYGKSPKFQNRLCKQFPFGKFEVFFNVSDGMIKDGNVFSDCLDINLVEQLKFIFNNDVRYSKDSVASFLRGLQVENEGSLREVTDWILQEL”, the “soluble on expression in E. coli” value was “not soluble”.
In the case of “SCSTSGCDLEEIPLDDDDLNTIEFKILAYYTRHHVFKSTPALFSPKLLRTRSLSQRGLGNCSANESWTEVSWPCRNSQSSEKAINLGKKKSSWKAFFGVVEKEDSQSTPAKVSAQGQRTLEYQDSHSQQWSRCLSNVEQCLEHEAVDPKVISIANRVAEIVYSWPPPQATQAGGFKSKEIFVTEGLSFQLQGHVPVASSSKKDEEEQILAKIVELLKYSGDQLERKLKKDKALMGHFQDGLSYSVFKTITDQVLMGVDPRGESEVKAQGFKAALVIDVTAKLTAIDNHPMNRVLGFGTKYLKENFSPWIQQHGGWEKILGISHEEVD” it was “soluble”.
Take “MTNNSGNKVQDIMTKNVATISPNQTVQEAAQIMSQKNIGALPVVENGQVKGMITDRDITLRVSSQGKDPSTVKVAEVMTNQVVTGTPNMSVQEAANVMAQHQVRRLPIVENNQLQGIVALGDIATNSASNEAAEQALTNISEPSQPQG”: the “soluble on expression in E. coli” value was “soluble”.
For the sequence “MGSDKIHHHHHHLPNLQEIFKKDNFIAWDDKVYPSILNFGAPLPKPLPRIAPNNAPLARLFIEFLYYYSMFNFKENYIGARPVMVMDRRTSQNNMVRSSTNKEVCIQDPFDEHNPGRTVRTLNRIKDVMRSTYQKFLPVEGSEFTFPTLDDIINMSPEVPKPSRAEVRNFRAEATEVNRVGLGVYCRNSFV”, the “soluble on expression in E. coli” value is given as “not soluble”.
